From paper PMC12702239, “The regulatory mechanisms of SARS-CoV-2 N protein helicase and its annealing activity”

Columns and labels:
CoV-2 N (nucleocapsid) = CoV-2 N (nucleocapsid) (SARS-CoV-2, UniProt P0DTC9 1-419); assay: fluorescence anisotropy; 50 mM NaCl, no Mg2+, no ATP; FP: 25 mM Tris-HCl pH 7.6, 50 mM NaCl, no Mg2+, 5 nM labelled nucleic acid, 5 min; temperature not stated; Kd from Hill fits (values not in the text); conditions: protein: recombinant; tags: His6; chain copies: 2; label: 3'-6-FAM on strand 1; 5' overhang 22 nt, 21 bp
CoV-2 Nsp13 helicase = CoV-2 Nsp13 helicase (SARS-CoV-2, UniProt P0DTD1 5325-5925); assay: fluorescence anisotropy; 10-42 C; no significant change; conditions: protein: recombinant; tags: N-terminal SUMO tag removed with SUMO protease; label: 3'-6-FAM on strand 1; 5' overhang 22 nt, 21 bp

B1: 5'D/D-OhS22D21 (dsDNA)
DNA 1: CTGTAGGAATGTGAAATAAAAACGATGTTTTATTTACATTGTA
DNA 2: TACAATGTAAATAAAACATCG
binding result (CoV-2 N (nucleocapsid)): binds
binding result (CoV-2 Nsp13 helicase): binds
